Experiment in all cases: FRET or BRET
Assay [1] deals with YFP-preIQ3-IQD-PCRDC (not stated (human or rat cDNA cloned) | human).
In assay [2] the target is YFP-preIQ3-IQD-PCRDS (not stated (human or rat cDNA cloned) | mouse).
In assay [3] the target is YFP-preIQ3-IQD-PCRDD (not stated (human or rat cDNA cloned)) (UniProt Q01668).
UniProt Q01668, sequence (Q01668 whole entry): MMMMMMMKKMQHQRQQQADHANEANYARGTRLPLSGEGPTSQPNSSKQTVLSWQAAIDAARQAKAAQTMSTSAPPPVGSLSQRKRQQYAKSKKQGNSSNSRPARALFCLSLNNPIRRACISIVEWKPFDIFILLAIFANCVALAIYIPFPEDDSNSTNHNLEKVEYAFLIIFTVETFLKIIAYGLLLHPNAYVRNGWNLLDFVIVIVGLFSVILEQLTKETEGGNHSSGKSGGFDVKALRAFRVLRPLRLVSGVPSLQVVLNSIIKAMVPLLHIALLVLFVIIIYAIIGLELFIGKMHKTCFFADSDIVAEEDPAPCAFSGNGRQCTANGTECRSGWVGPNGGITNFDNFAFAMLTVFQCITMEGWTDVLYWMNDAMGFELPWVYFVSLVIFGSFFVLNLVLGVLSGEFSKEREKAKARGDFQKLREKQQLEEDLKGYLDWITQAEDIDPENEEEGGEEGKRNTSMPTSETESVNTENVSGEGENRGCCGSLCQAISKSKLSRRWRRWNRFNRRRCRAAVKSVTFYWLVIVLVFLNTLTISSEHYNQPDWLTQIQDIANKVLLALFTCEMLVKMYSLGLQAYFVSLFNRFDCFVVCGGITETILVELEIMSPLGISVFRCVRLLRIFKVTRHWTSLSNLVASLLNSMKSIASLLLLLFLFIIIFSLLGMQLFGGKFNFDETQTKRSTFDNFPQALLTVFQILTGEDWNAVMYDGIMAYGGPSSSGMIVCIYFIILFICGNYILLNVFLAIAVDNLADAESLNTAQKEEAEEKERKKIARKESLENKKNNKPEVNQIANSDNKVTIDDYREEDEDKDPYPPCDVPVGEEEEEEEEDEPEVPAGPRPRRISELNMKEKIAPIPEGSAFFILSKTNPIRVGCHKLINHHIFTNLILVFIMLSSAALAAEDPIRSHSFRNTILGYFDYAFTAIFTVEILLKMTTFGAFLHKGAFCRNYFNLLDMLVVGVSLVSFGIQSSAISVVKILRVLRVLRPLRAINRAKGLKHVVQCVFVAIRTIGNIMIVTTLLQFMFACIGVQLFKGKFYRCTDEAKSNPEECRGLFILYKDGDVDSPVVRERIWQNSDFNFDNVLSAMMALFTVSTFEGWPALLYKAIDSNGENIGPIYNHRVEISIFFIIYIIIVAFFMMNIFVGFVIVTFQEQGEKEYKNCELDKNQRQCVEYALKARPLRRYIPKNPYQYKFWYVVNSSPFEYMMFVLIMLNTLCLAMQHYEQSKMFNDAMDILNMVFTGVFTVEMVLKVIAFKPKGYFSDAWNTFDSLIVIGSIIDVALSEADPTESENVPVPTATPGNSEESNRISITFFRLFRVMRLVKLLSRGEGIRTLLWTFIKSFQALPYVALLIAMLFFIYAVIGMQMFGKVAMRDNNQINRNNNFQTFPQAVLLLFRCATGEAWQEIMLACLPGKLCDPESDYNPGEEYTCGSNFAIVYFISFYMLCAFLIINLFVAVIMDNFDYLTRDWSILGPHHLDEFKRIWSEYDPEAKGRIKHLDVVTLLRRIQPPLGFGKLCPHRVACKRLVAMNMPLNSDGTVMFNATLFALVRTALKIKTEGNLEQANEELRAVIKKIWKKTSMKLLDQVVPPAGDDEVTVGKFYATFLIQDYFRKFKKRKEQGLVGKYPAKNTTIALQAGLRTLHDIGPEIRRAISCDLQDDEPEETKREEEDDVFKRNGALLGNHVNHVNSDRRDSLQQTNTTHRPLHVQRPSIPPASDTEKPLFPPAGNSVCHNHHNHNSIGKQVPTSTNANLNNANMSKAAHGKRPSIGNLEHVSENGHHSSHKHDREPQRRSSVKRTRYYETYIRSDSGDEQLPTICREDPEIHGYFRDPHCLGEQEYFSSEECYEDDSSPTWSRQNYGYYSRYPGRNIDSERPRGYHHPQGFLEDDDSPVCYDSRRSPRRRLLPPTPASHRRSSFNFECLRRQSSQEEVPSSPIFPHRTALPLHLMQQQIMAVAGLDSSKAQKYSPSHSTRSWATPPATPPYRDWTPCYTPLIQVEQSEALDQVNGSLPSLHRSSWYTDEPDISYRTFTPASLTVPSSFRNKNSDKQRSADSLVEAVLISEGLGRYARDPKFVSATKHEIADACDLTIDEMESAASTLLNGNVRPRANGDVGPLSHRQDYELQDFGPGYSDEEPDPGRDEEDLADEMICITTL

The substance “CFP-DCRDC (distal C-terminal regulatory domain of CaV1.2) (from UniProt Q13936 1-2221) (domain or fragment)” came in with a relative Kd (normalised to Kd of PD/DF) in assay [1] of 11.2.
With “CFP-DCRDS (distal C-terminal regulatory domain of CaV1.1) (from UniProt Q02789 1-1852) (domain or fragment)”, the relative Kd (normalised to Kd of PD/DF) in assay [2] was found to be 18.7.
Substance “PCRDC-DCRDF peptide (PCRD of CaV1.2 joined to DCRD of CaV1.4)” registered a relative Kd (normalised to Kd of PD/DF) in assay [3] of 2.3.

Source of the values: doi:10.1101/2020.01.26.920348.
